Results: US20130317087A1 (UNIVERSITY OF ROCHESTER, published 2013)

Tests used:
[1] = target: the molecule itself; experiment: gel filtration of the E. coli-made protein
Procedure: Since hSTAU1^{55(R)}Δ(SSM-‘RBD’5)-FLAG still had residual dimerization activity (10% that of hSTAU1^{55(R)}-FLAG), and in view of reports that hSTAU1 ‘RBD’2 amino acids 37-79 can interact with full-length hSTAU1, the ability of E. coli-produced ‘RBD’2-RBD3 amino acids 43-173 to dimerize was assayed.
Size standards were prepared by dissolving dried proteins in 2 ml of GF buffer containing 2.97 mM DTT. Proteins consisted of 3.8 mg of conalbumin (75 kDa), 2.3 mg carbonic anhydrase (29 kDa) and 6.7 mg aprotinin(6.5 kDa), each from the Low Molecular Weight Gel Filtration Calibration Kit (GE Healthcare; #28-4038-41), and 6 mg of lysozyme (14.3 kDa) (Sigma; #L6876-10G). The dissolved solution (1 ml, determined using a 1 ml loop) was loaded onto a 120 ml HiLoad™Superdex™ 200 16/60 prep-grade column (GE Healthcare) and separated at a 1 ml/min flow rate using the BioLogicDuoFlow™ FPLC system. For size estimations, gel-filtration of SSM-‘RBD’5 (WT), SSM-‘RBD’5 (E424H, D427V) and ‘RBD’2-RBD3 was performed as described for the size standards. SSM-‘RBD’5 (WT) was loaded at 8 mg/ml, SSM-‘RBD’5 (E424H, D427V) was loaded, and ‘RBD’2-RBD3 was loaded at 6 mg/ml.

hSTAU1^55-HA3 [2] = target: T1, hSTAU1^55-HA3 (human, UniProt O95793-2 1-496); experiment: anti-FLAG and anti-HA co-IP from HEK293T lysates with RNase A
T1 construct: also called STAU1-HA3
T1 sequence (looked up): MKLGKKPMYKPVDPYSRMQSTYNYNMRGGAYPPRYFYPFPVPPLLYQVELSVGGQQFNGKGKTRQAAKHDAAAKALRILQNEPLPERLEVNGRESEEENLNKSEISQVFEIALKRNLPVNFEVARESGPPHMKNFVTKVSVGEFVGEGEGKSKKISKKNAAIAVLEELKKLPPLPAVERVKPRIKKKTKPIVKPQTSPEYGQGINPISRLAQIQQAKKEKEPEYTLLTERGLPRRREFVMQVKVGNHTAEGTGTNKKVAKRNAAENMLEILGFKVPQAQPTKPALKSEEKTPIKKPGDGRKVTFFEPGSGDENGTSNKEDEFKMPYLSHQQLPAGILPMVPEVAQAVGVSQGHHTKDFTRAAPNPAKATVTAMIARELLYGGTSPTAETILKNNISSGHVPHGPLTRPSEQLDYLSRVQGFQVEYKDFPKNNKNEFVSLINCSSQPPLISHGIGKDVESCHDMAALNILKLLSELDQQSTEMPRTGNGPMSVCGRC
Source text: (§1) To test this idea, HEK293T cells were transiently transfected with hSTAU1⁵⁵-HA₃ and one of three siRNA-resistant (R) plasmids that produce either hSTAU1^{55(R)}-FLAG, hSTAU1^{55(R)}Δ(C-Term)-FLAG or hSTAU1^{55(R)}Δ(SSM-‘RBD’5)-FLAG, each of which was expressed at the level of cellular hSTAU 1. hSTAU1^{55(R)}Δ(C-Term)-FLAG lacks all amino acids C-terminal to ‘RBD’5 Δ1. Cell lysates were immunoprecipitated in the presence of RNaseA using anti-FLAG or, as a negative control, mIgG.

hSTAU1^55-HA3 [3] = target: T1, hSTAU1^55-HA3; experiment: anti-FLAG co-IP from HEK293T lysates with RNase A, quantitated western blot
Source text: as §1
(§2) The level of hSTAU1⁵⁵-HA₃ or cellular hUPF1 that co-immunoprecipitated with hSTAU1^{55(R)}Δ(SSM-‘RBD’5)—FLAG was only ˜10% the level of, respectively, hSTAU1⁵⁵-HA₃ or cellular hUPF1 that co-immunoprecipitated with hSTAU1^{55(R)}-FLAG or hSTAU1^{55(R)}Δ(C-Term)-FLAG.

cellular hUPF1 = target: T2, cellular hUPF1 (human, UniProt Q92900-2 1-1118, limits assumed); experiment: as above
T2 construct: Endogenous protein detected by western blotting
T2 sequence (looked up): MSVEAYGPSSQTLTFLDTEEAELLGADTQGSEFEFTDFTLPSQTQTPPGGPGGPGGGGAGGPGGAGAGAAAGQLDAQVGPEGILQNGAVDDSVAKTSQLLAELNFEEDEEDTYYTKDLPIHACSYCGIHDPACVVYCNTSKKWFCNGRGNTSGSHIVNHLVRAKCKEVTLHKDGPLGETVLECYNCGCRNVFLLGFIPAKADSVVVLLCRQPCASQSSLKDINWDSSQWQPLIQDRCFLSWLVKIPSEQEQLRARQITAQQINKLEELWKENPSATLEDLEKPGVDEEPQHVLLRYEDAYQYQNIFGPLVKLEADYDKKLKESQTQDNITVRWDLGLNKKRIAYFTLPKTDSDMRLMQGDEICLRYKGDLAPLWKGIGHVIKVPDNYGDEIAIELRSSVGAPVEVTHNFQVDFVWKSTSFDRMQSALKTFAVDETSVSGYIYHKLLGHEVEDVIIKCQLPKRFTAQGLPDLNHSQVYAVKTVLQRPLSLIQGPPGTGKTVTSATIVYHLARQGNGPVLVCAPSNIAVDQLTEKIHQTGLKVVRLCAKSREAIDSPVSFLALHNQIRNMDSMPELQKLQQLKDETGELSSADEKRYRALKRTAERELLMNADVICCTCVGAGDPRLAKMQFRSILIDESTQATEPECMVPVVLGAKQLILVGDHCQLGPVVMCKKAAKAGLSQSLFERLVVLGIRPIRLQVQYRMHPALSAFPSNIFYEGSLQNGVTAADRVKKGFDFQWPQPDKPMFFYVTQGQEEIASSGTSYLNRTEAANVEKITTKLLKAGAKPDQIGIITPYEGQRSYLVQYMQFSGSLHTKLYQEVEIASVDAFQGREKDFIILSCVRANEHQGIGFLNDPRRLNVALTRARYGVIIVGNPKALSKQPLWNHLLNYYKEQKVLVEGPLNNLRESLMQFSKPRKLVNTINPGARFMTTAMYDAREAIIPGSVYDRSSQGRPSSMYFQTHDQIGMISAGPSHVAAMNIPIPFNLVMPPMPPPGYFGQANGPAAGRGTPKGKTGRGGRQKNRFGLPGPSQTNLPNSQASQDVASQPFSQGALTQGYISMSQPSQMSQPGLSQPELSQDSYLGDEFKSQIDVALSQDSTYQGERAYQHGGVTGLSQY
Source text: as §1, §2

hSTAU1^55-HA3 [4] = target: T1, hSTAU1^55-HA3; experiment: anti-HA co-IP (reverse direction) from HEK293T lysates, quantitated western blot
Source text: as §1, with “Cell lysates were immunoprecipitated in the presence of RNaseA using anti-FLAG or, as a negative control, mIgG.” left out
as §2

[5] = target: the molecule itself; experiment: sedimentation velocity analytical ultracentrifugation, rapid monomer-dimer equilibrium model
Procedure: After purifying GST-hSTAU1⁵⁵(367-476) from E. coli and removing the GST tag, SSM-‘RBD’5 migrated during gel filtration at the size of a dimer Sedimentation velocity determinations using analytical ultracentrifugation confirmed that the average weight distribution of SSM-‘RBD’5 shifted to lower Svedberg values at lower concentrations (FIG. 10C).
hSTAU1-SSM-‘RBD’5 was purified as above, except the final GF buffer contained 2.97 mM DTT, and submitted to the University of Connecticut Analytical Ultracentrifugation Facility for sedimentation velocity analysis. […] Measuring refractive index rather than absorbance was especially useful considering the low extinction coefficient at A₂₈₀ that typifies SSM-‘RBD’5; which lacks tryptophan residues. […] Data were analyzed using: 1) DcDt+, version 2.0.9 (Philo, 2000; 2006), to determine the sedimentation coefficient distribution that was independent of a model, 2) Sedfit, version 10.09beta (Schuck, 2000), to produce a model-based continuous sedimentation coefficient distribution using the Lamm equation or c(s) to identify the number of species (e.g., monomers vs dimers) in solution, and 3) Sedanal, version 5.60 to combine datasets from the three highest of four concentrations tested, perform a global analysis, and determine the protein association model using the Lamm equation.

B1: hSTAU1 ‘RBD’2-RBD3 (amino acids 43-173) (other, human, UniProt O95793-2 43-173, looked up)
chain: PLLYQVELSVGGQQFNGKGKTRQAAKHDAAAKALRILQNEPLPERLEVNGRESEEENLNKSEISQVFEIALKRNLPVNFEVARESGPPHMKNFVTKVSVGEFVGEGEGKSKKISKKNAAIAVLEELKKLPP
notes: range 43-173; Made in E. coli from pGEX-6p-1 and cut with PreScission Protease; also called product of pGEX-6p-1-hSTAU1-‘RBD’2-RBD3
B1: binds [1].

B2: hSTAU1^55(R)Δ(C-Term)-FLAG (other, human, UniProt O95793-2 1-422, looked up, not shown: small tags and cut ends)
chain: MKLGKKPMYKPVDPYSRMQSTYNYNMRGGAYPPRYFYPFPVPPLLYQVELSVGGQQFNGKGKTRQAAKHDAAAKALRILQNEPLPERLEVNGRESEEENLNKSEISQVFEIALKRNLPVNFEVARESGPPHMKNFVTKVSVGEFVGEGEGKSKKISKKNAAIAVLEELKKLPPLPAVERVKPRIKKKTKPIVKPQTSPEYGQGINPISRLAQIQQAKKEKEPEYTLLTERGLPRRREFVMQVKVGNHTAEGTGTNKKVAKRNAAENMLEILGFKVPQAQPTKPALKSEEKTPIKKPGDGRKVTFFEPGSGDENGTSNKEDEFKMPYLSHQQLPAGILPMVPEVAQAVGVSQGHHTKDFTRAAPNPAKATVTAMIARELLYGGTSPTAETILKNNISSGHVPHGPLTRPSEQLDYLSRVQGFQ
notes: domain: lacks all amino acids C-terminal to ‘RBD’5 α1; End at residue 422 is read from the primer; also called product of pcI-neo-hSTAU1^55(R)Δ(C-Term)-FLAG
B2: binds (hSTAU1^55-HA3 [2]).

B3: hSTAU1^55(R)Δ(SSM-‘RBD’5)-FLAG (other, human, UniProt O95793-2 1-363, looked up, not shown: small tags and cut ends)
chain: MKLGKKPMYKPVDPYSRMQSTYNYNMRGGAYPPRYFYPFPVPPLLYQVELSVGGQQFNGKGKTRQAAKHDAAAKALRILQNEPLPERLEVNGRESEEENLNKSEISQVFEIALKRNLPVNFEVARESGPPHMKNFVTKVSVGEFVGEGEGKSKKISKKNAAIAVLEELKKLPPLPAVERVKPRIKKKTKPIVKPQTSPEYGQGINPISRLAQIQQAKKEKEPEYTLLTERGLPRRREFVMQVKVGNHTAEGTGTNKKVAKRNAAENMLEILGFKVPQAQPTKPALKSEEKTPIKKPGDGRKVTFFEPGSGDENGTSNKEDEFKMPYLSHQQLPAGILPMVPEVAQAVGVSQGHHTKDFTRAAP
notes: domain: Δ(SSM-‘RBD’5); End at residue 363 is read from the primer; also called product of pcI-neo-hSTAU1^55(R)Δ(SSM-‘RBD’5)-FLAG
B3 was tested, and the “level of co-immunoprecipitated hSTAU1^55-HA3 relative to that with hSTAU1^55(R)-FLAG or hSTAU1^55(R)Δ(C-Term)-FLAG” value (hSTAU1^55-HA3 [3]) was roughly 10%, the “level of co-immunoprecipitated cellular hUPF1 relative to that with hSTAU1^55(R)-FLAG or hSTAU1^55(R)Δ(C-Term)-FLAG” value (cellular hUPF1) was roughly 10% and the “level co-immunoprecipitated with hSTAU1^55-HA relative to hSTAU1^55(R)-FLAG or hSTAU1^55(R)Δ(C-Term)-FLAG” value (hSTAU1^55-HA3 [4]) was roughly 10%.

B4: hSTAU1^55(R)-FLAG (other, human, UniProt O95793-2 1-496, looked up, not shown: small tags and cut ends)
chain: MKLGKKPMYKPVDPYSRMQSTYNYNMRGGAYPPRYFYPFPVPPLLYQVELSVGGQQFNGKGKTRQAAKHDAAAKALRILQNEPLPERLEVNGRESEEENLNKSEISQVFEIALKRNLPVNFEVARESGPPHMKNFVTKVSVGEFVGEGEGKSKKISKKNAAIAVLEELKKLPPLPAVERVKPRIKKKTKPIVKPQTSPEYGQGINPISRLAQIQQAKKEKEPEYTLLTERGLPRRREFVMQVKVGNHTAEGTGTNKKVAKRNAAENMLEILGFKVPQAQPTKPALKSEEKTPIKKPGDGRKVTFFEPGSGDENGTSNKEDEFKMPYLSHQQLPAGILPMVPEVAQAVGVSQGHHTKDFTRAAPNPAKATVTAMIARELLYGGTSPTAETILKNNISSGHVPHGPLTRPSEQLDYLSRVQGFQVEYKDFPKNNKNEFVSLINCSSQPPLISHGIGKDVESCHDMAALNILKLLSELDQQSTEMPRTGNGPMSVCGRC
notes: Expressed in HEK293T cells at the level of cellular hSTAU1; also called product of pcI-neo-hSTAU1^55(R)-FLAG
B4: binds (hSTAU1^55-HA3 [2]).

B5: hSTAU1 SSM-‘RBD’5 (hSTAU1^55 amino acids 367-476, GST tag removed) (other)
chain: GPLGSKATVTAMIARELLYGGTSPTAETILKNNISSGHVPHGPLTRPSEQLDYLSRVQGFQVEYKDFPKNNKNEFVSLINCSSQPPLISHGIGKDVESCHDMAALNILKLLSELD
notes: Made in E. coli as a GST fusion from pGEX-6p-1, GST cleaved off; In monomer-dimer equilibrium; also called SSM-‘RBD’5(WT); hSTAU1^55(367-476)
With B5 the Kd [5] was 79 µM.
